Data reported in patent US20250326836A1 (SHIONOGI, published 2025).
Positions count from the first letter of the chain named. Where two headings read alike, the source gives them in different places.

B1: m2F8 (antibody, V domains shown)
VH: QVQLQQSGAELVKPGASVKISCKASGYEFSYYWMNWVKQRPGKGLEWIGQIYPGDGDTNYNGKFKGKATLAAGKSSSTAYMQLSSLTSEDSAVYFCARSHGNYMIYWGQGTSVTVSS
VL: QIVLTQSPAIMSASLGERITLTCIASSSVSSSYLHWYQQKPGSSPKLWIYSTSNLASGVPTRFSGSGSGTSFSLTISTMEAEDAATYYCHQYHRSPRTFGGGTKLEIKR
B2: m26C7 (antibody, V domains shown)
VH: B1 VH with A71T, G73D, I105A
VL: B1 VL with I24T
B3: m4D7 (antibody, V domains shown)
VH: B1 VH with L70V, A71T, G73D, R98K, I105D
VL: B1 VL with I24T
B4: m24C4 (antibody, V domains shown)
VH: B1 VH with A71T, G73D, I105H
VL: B1 VL with I24T
B5: Nimacimab (BIRD ROCK BIO) (antibody, V domains shown)
VH: QVQLVQSGAEVKKPGSSVKVSCKASGYEFSYYWMNWVRQAPGQGLEWMGQIYPGDGETKYAQKFQGRVTITADKSTSTAYMELSSLRSEDTAVYYCARSHGNYLPYWGQGTLVTVSS
VL: EIVLTQSPATLSLSPGERATLSCRASQSVSSSYLHWYQQKPGQAPRLLIYSTSNLASGIPARFSGSGSGTDFTLTISRLEPEDFAVYYCHQYHRSPPTFGQGTKVEIK
B6: hIML1-2-OP1 (antibody, V domains shown)
VH: QVQLVQSGAEVKKPGASVKVSCKASGYEFNYYWMNWVRQAPGQGLEWMGQIYPGDGDNRYNGKFKGRVTMTRDTSTSTVYMELSSLRSEDTAVYYCARTGSGRFAYWGQGTLVTVSS
VL: DIQMTQSPSSLSASVGDRVTITCKASSSVSTRYLHWYQQKPGKAPKLLIYGTSNIASGVPSRFSGSGSGTDFTLTISSLQPEDVATYYCQQYTAFPLTFGQGTKVEIKR
B7: mIML1-2 (antibody, V domains shown)
VH: QVQLQQSGAELVKPGASVKIACKASGYEFNYYWMNWVKQRPGKGLEWIGQIYPGDGDNKYNGKFKGKATLTADKSSSTVYMQLNSLTSEDSAVYFCARTGSGRFAYWGQGTLVTVSA
VL: QIVLTQSPAIMSASPGEKVTMTCRASSSVSSSYLHWYQQKSGASPKLWIYSTSNLASGVPARFSGSGSGTSYSLTITSVEAEDVATYYCQQYSGFPLTFGSGTKLEIKR
B8: h2F8 (antibody, V domains shown)
VH: QVQLVQSGAEVKKPGASVKVSCKASGYEFSYYWMNWVRQAPGQGLEWMGQIYPGDGDTNYNGKFKGRVTMTRDTSTSTVYMELSSLRSEDTAVYYCARSHGNYMIYWGQGTTVTVSS
VL: EIVLTQSPGTLSLSPGERATLSCIASSSVSSSYLHWYQQKPGQAPRLLIHSTSNLASGIPERFSGSGSGPDFTLTISRLKPEDFAVYYCHQYHRSPRTFGQGTKVEIKR

Key:
[1] = molecular target: T1, human cannabinoid type 1 (CB1) receptor (human, UniProt P21554 1-472); experiment: cell-based or functional assay
[2] = molecular target: T1, human cannabinoid type 1 (CB1) receptor; experiment: cell-based or functional assay; remark: listed apart in the source

T1 sequence (P21554 whole entry): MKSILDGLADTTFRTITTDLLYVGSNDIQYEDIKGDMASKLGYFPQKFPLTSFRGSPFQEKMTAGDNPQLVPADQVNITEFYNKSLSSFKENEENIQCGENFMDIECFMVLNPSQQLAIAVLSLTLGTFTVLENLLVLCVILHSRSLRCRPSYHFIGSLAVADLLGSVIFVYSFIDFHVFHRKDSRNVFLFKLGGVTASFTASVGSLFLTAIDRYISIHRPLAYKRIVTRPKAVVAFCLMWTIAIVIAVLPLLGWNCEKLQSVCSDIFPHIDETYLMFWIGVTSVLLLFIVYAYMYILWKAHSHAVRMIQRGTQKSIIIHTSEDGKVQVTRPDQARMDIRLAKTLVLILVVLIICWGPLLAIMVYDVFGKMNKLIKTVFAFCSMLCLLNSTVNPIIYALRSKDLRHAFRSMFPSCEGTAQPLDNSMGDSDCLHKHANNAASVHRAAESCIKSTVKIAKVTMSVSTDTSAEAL

Row | Binder | Ca^2+ influx assay IC50 [1] [nM] | cAMP assay IC50 [1] [nM] | Ca^2+ influx assay IC50 [2] [nM] | cAMP assay IC50 [2] [nM]
1 | B1 | 0.9 | 4.9 | – | –
2 | B2 | 1.85 | 6.5 | – | –
3 | B3 | 1.29 | 3.9 | – | –
4 | B4 | 1.22 | 5 | – | –
5 | B5 | – | – | 2.62 | 28.6
6 | B6 | – | – | 0.55 | 8.5
7 | B7 | 1.77 | 5.9 | – | –
8 | B8 | – | – | 2.03 | 5.9
